The values below come from patent publication US20250075002A1.

In the experiment the target is Human MUC1 (full length), on cells (human) (UniProt P15941). As to the kind of experiment: cell-based or functional assay.
Human MUC1 (full length), on cells (human), sequence (P15941 24-1255 limits assumed): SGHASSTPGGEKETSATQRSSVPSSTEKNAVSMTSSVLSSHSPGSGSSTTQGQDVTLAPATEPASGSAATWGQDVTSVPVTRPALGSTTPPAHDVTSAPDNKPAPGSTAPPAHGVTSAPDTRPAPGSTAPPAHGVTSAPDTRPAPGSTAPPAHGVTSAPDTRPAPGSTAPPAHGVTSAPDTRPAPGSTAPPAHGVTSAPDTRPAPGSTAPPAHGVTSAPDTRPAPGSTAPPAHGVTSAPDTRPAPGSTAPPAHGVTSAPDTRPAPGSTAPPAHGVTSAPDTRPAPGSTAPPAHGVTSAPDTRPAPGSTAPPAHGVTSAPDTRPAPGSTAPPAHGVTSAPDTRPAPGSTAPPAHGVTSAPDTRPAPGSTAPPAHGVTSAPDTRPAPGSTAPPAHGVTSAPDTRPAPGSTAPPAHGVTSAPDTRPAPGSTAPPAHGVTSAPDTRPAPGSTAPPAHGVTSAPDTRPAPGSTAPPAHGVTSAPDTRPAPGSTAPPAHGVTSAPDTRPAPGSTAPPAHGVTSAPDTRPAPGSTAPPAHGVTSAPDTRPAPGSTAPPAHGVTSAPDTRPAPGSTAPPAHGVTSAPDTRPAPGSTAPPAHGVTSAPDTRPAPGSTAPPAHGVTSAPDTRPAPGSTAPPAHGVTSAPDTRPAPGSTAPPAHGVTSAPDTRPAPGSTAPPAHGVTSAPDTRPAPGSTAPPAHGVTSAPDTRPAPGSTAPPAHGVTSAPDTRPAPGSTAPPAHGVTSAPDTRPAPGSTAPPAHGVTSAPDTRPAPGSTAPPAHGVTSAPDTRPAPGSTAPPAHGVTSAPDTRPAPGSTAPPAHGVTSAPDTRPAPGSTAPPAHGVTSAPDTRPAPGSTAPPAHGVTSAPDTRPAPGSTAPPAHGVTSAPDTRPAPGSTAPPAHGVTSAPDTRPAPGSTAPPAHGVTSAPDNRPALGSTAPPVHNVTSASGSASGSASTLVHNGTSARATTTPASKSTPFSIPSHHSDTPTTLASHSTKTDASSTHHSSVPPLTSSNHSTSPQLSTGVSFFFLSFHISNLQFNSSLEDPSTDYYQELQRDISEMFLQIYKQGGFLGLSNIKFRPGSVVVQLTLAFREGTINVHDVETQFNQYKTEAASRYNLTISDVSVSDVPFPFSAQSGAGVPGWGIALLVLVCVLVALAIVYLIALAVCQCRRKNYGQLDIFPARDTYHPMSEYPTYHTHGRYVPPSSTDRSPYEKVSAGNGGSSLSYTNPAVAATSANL

B1: huBG219P-E39-AF (antibody, human IgG1, V domains shown)
VH: EVQLLESGGGLVQPGGSLRLSCAASGFTFNDYIMSWVRQAPGKGLEWVATVSSGGDNTYYPDSVKGRFTISRDNSKNTLYLQMNSLRAEDTAVYYCTRYGGLGAMDYWGQGTLVTVSS
VL: DIQMTQSPSSLSASVGDRVTITCRASGNIHNYLTWYQQKPGKAPKLLIYNAKTLASGVPSRFSGSGSGTDFTLTISSLQPEDFATYYCQHFWSVPYTFGQGTKLEIK
modifications: afucosylated Fc glycan (-AF; expressed with 2F-peracetyl-fucose)
B1 gave an ADCC EC50, HCC827 (MUC1 medium), NK92mi/CD16A F158 effectors, w/o huIgG of 11.5 nM; an ADCC EC50, T-47D (MUC1 high), NK92mi/CD16A F158 effectors, w/o huIgG of 1.3 nM; an ADCC EC50, T-47D (MUC1 high), NK92mi/CD16A V158 effectors, w/o huIgG of 0.603 nM; an ADCC Emax, H358 (MUC1 low), NK92mi/CD16A F158 effectors, 10 mg/ml huIgG1 of 10.7%. Moreover, the ADCC Emax, H358 (MUC1 low), NK92mi/CD16A F158 effectors, w/o huIgG was determined as 10.2%; the ADCC Emax, H358 (MUC1 low), NK92mi/CD16A V158 effectors, 10 mg/ml huIgG1 stood at 15.5%; the ADCC Emax, H358 (MUC1 low), NK92mi/CD16A V158 effectors, w/o huIgG worked out at 15.6%; the ADCC Emax, HCC827 (MUC1 medium), NK92mi/CD16A F158 effectors, 10 mg/ml huIgG1 is 31%. The ADCC Emax, HCC827 (MUC1 medium), NK92mi/CD16A F158 effectors, w/o huIgG turned out to be 36.8%; the ADCC Emax, HCC827 (MUC1 medium), NK92mi/CD16A V158 effectors, 10 mg/ml huIgG1 turned out to be 26.7%; the ADCC Emax, HCC827 (MUC1 medium), NK92mi/CD16A V158 effectors, w/o huIgG is 25%; the ADCC Emax, T-47D (MUC1 high), NK92mi/CD16A F158 effectors, 10 mg/ml huIgG1 was 25.7%. The molecule also had an ADCC Emax, T-47D (MUC1 high), NK92mi/CD16A F158 effectors, w/o huIgG of 48.2%; an ADCC Emax, T-47D (MUC1 high), NK92mi/CD16A V158 effectors, 10 mg/ml huIgG1 of 19.2%; an ADCC Emax, T-47D (MUC1 high), NK92mi/CD16A V158 effectors, w/o huIgG of 33.6%; a Cell lysis activity EC50, T-47D (MUC1 high) in human whole blood of 1.25 nM. This molecule yielded a Cell lysis activity Emax, H358 (MUC1 low) in human whole blood of 8.6%; a Cell lysis activity Emax, HCC827 (MUC1 medium) in human whole blood of 14.1%; a Cell lysis activity Emax, T-47D (MUC1 high) in human whole blood of 20.2%; a Phagocytosis (ADCP) EC50, T-47D, human M2 macrophages, w/o huIgG of 0.05 nM. The molecule also had a Phagocytosis (ADCP) Emax, T-47D, human M2 macrophages, 10 mg/ml huIgG1 of 17.6% and a Phagocytosis (ADCP) Emax, T-47D, human M2 macrophages, w/o huIgG of 56.4%.

B2: MUC1 5F3-hFc-AF (antibody, V domains shown)
VH: DVQVQESGPDLVKPSQSLSLTCTVTGHSITRGSSWHWIRQFPGNKLEWMGYIHYGGGTSYNPSLKSRISITRDTSKNQFFLQLNSVTTEDTATFFCARYSYDITYRWFFDVWGAGTTVIVSS
VL: DILLTQSPAILSVSPGERVSFSCRASQNIGTSIHWYQQRKNGSPRLLIKYASESISGIPSRFSGSGSGTDFTLSINSVESEDMADYYCQQNNNWPLTFGAGTKLELK
B2 returned a Cell lysis activity EC50, T-47D/nanoluc in human whole blood of 0.464 nM and a Cell lysis activity Emax, T-47D/nanoluc in human whole blood of 7.78%.
